The results in this text go back to article PMC10140047.

The target in assay [1] is dynein (cytoplasmic dynein-1, endogenous, detected by its intermediate chain DIC) (human (endogenous in HeLa)) (UniProt Q13409).
For assay [2], the target named is RanBP2/NUP358 BICD2 Binding Domain (BBD), 2147-2287 (UniProt P49792). Nature of the assay: GST pull-down with purified proteins. Conditions: reference: wild type; sites S102.
Assay [3] addresses PLK1 PBD, 354-603 (Methods: 345-603) (UniProt P53350). Nature of the assay: GST-PBD pull-down from cell extracts. Conditions: reference: wild type; sites T319,S320,T321.
The target in the next assay is PLK1 (UniProt P53350). The experiment in a line: anti-GFP IP, PLK1 blot. Conditions: reference: wild type, sites T319,S320,T321.
The target of assay [4] is GST-RanBP2 BBD phosphorylated by CDK1/cyclin B (human) (UniProt P49792). Nature of the assay: pull-down; GST-RanBP2 BBD on GSH agarose beads, untreated or pre-phosphorylated by CDK1/cyclin B1, incubated 90 min at RT with purified TwinStrep-BICD2 in Binding Buffer (50 mM Tris pH 7.4, 125 mM NaCl, 5 mM EDTA, 0.1% NP40); blot with anti-BICD2.
Sequence of GST-RanBP2 BBD phosphorylated by CDK1/cyclin B (human) (P49792 2147-2287): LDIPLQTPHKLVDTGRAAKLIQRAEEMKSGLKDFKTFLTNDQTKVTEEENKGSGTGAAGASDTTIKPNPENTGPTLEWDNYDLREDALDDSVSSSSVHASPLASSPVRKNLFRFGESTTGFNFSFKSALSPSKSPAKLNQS

Sequence of dynein (cytoplasmic dynein-1, endogenous, detected by its intermediate chain DIC) (human (endogenous in HeLa)) (Q13409 whole entry, looked up, the tested form may be a part): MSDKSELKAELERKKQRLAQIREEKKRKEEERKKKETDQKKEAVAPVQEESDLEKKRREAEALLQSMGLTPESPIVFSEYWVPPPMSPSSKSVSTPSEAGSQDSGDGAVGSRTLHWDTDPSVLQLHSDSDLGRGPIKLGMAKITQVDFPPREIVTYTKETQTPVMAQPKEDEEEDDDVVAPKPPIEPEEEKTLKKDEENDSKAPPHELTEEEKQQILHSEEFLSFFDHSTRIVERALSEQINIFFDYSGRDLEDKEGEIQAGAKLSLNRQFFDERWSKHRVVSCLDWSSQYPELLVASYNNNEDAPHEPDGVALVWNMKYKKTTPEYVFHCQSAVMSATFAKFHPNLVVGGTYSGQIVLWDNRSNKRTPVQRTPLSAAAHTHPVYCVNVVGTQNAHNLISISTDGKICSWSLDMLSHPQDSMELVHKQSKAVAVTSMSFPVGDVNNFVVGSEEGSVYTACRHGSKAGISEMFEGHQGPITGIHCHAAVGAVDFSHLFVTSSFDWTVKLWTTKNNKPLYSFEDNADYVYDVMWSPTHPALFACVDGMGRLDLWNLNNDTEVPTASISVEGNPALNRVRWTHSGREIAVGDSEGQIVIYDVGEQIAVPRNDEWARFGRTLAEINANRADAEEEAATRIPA

As to “GFP-BICD2 [1–575] (from UniProt Q921C5 1-575) (domain or fragment)”, the percent of U2OS cells with clustered mitochondria, BICD2 form expressed as GFP-BICD2 [1–575]-MTD in assay [1] was 85%.
“BICD2 (mouse, recombinant) (from UniProt Q921C5) S102D”: the fold change in assay [2] stood at 12.
“BICD2 (mouse, recombinant) (from UniProt Q921C5) T319A/S320A/T321A”: the “binding against the reference” value in assay [3] is “lost”.
“BICD2 (mouse, recombinant) (from UniProt Q921C5) T319A/S320A/T321A, exponentially growing cells”: the “binding against the reference” value with PLK1 (exponentially growing cells) is on record as “lost”.
For “GFP-BICD2 S102A (from UniProt Q921C5 1-820) (natural protein)”, the percent of U2OS cells with clustered mitochondria, BICD2 form expressed as GFP-BICD2 S102A-MTD in assay [1] was 43%.
In turn, “GFP-BICD2 S102D (from UniProt Q921C5 1-820) (natural protein)” showed a percent of U2OS cells with clustered mitochondria, BICD2 form expressed as GFP-BICD2 S102D-MTD in assay [1] of 61%.
Turning to “GFP-BICD2 wild type (from UniProt Q921C5 1-820) (natural protein)”, in assay [1], the percent of U2OS cells with clustered mitochondria, BICD2 form expressed as GFP-BICD2 WT-MTD was 50%.
Regarding “BICD2 (mouse, recombinant) (from UniProt Q921C5) T319A/S320A/T321A, mitotic cells”, the “binding against the reference” value in the assay with PLK1 (mitotic cells) is reported as “lost”.
Take “TwinStrep-BICD2 S102D (from UniProt Q921C5 1-820) (natural protein)”: in assay [4], the fold binding against wild-type BICD2 on phosphorylated BBD came out at 12 fold and the fold binding against wild-type BICD2 on unmodified BBD was 400 times.
